Assay results taken from patent publication US6353089B1, “Method for stimulating CTLs with peptides” (Ludwig Institute for Cancer Research, priority 1994, dated 2002).
Each block holds one sequence with its values, some of them ahead of it.

Tests used:
[1] = target: T1, HLA-A2 molecules (Homo sapiens, UniProt P04439, D140Y/D185E/D98H/E176V/E277Q/G131W/G231S/I119V/I121R/I166T/I218V/L300P/L318F/N151K/N90K/P208A/P217A/Q86G/Q94H/R138H/R169H/T345S); assay: HLA-A2 binding (stabilization) assay on T2 cells, mean fluorescence ratio; details: peptide 0.1 mM
T1 construct: endogenous in cells; host or cells: 174 CEM.T2 (T2) cells
Description: To determine whether or not peptides bound to HLA-A2 molecules, cell line 174 CEM.T2 (hereafter “T2”) was used. This cell line is described by Cerundolo et al., Nature 345: 449-452 (1990), and Spies et al., Nature 348: 744-747 (1990), the disclosures of which are incorporated by reference. This is a cell line deficient in the pathway which supplies peptides to the endoplasmic reticulum, the site of assembly of MHC class I heterodimers. It can assemble MHC class-I molecules, but these are unstable, and, on cell lysis, dissociate into free heavy and light chains during overnight incubation. The heterodimers can, however, be stabilized in vitro via addition of appropriate peptide ligands, as per Townsend et al., Nature 340: 443-448 (1989); Townsend et al., Cell 62: […] (1990); Cerundolo et al., supra; Schumacher et al., Nature 350: 703-706 (1991); Elliot et al., Nature 351: 402-406 (1991); Elvin et al., Eur. J. Immunol. 21 : 2025-2031 (1991). The thus stabilized molecules can be immunoprecipitated with antibodies specific for the MHC class-I molecule.
In light of this background, the T2 cells were washed in serum free IMDM medium, and then 1.0×10^6 cells were suspended in 400 ul of the serum free IMDM medium, together with 100 ul synthetic peptide (final concentration: 0.1 mM, 1% DMSO). The mixture was incubated, overnight, at 37° C. Following incubation, the cells were washed and stained, successively, with HLA-A2 specific monoclonal antibody BB7.2, and FITC labelled, binding fragments of polyclonal goat anti-mouse IgG. Fluorescence ratio was calculated by the following formula: [formula]
This yielded the “mean fluorescence ratio” or MFR. In accordance with Nijman et al, supra, an MFR greater than 1.5 indicates binding to HLA-A2.

[2] = system: T2 cells; assay: chromium release assay with CTL 4.2, T2 target cells; type: cell-based; details: for % 51CR Release: T2 + peptide
Description: The CTL clone was obtained using T2 cells, in accordance with Houbiers et al., Eur. J. Immunol. 23: 2072 (1993), previously incorporated by reference in its entirety.
Once the CTL clone was isolated, it was used in a chromium release assay in accordance with Boon, et al., J. Exp. Med. 152: 1184 (1980) the disclosure of which is incorporated by reference in its entirety. In addition to T2, cell line SK23, which is an HLA-A2 presenting line, was tested. The results are presented below:
Effector Cell (E): CTL 4.2 Target (T): HLA-A2 cell plus SEQ ID NO: 4

[3] = overnight 37° C., BB7.2 staining, MFR greater than 1.5 indicates binding to HLA-A2

MFR (mean fluorescence ratio) [1, 3]: 1.8 (and, less than
Sequence: ALVETSYVKV [Peptide M3-277.286, MAGE-3 derived peptide]

MFR (mean fluorescence ratio) [1, 3]: 2.37
Sequence: IMPKAGLLI [Peptide M3-195.203]

The remaining lines, values behind:

Sequence: ALSRKVAEL [Peptide M3-108.116, MAGE-3 derived peptide]
MFR (mean fluorescence ratio) ([1]; in some of the experimental runs): < 1.5)
MFR (mean fluorescence ratio) [1, 3]: 2.17 (and, less than

Sequence: KIWEELSVL [Peptide M3-220.228]
% 51CR Release ([2]; effector CTL 4.2, E/T ratio 0.5): 57%
% 51CR Release ([2]; effector CTL 4.2, E/T ratio 1.9): 84%
% 51CR Release ([2]; effector CTL 4.2, E/T ratio 7.5): 88%
% 51CR Release ([2]; effector CTL 4.2, E/T ratio 30): 91%
lysis of peptide-pulsed target cells by cytolytic T cell clone 4.2 ([2]; target cells (T2, SK23) pulsed with peptide, no lysis in the absence of the peptide): specifically lysed

Sequence: TLVEVTLGEV [Peptide M3-44.53]
MFR (mean fluorescence ratio) [1, 3]: 3.5
